# Earlier results, collected in patent publication US20230355537A1, “PROMOTING TRAINED IMMUNITY WITH THERAPEUTIC NANOBIOLOGIC COMPOSITIONS” (Icahn School of Medicine at Mount Sinai, priority 2017, published 2023).
# Assays:
# [1] = molecular target: T1, PD-L1 (Homo sapiens, UniProt Q9NZQ7); conditions: in vivo
# T1 construct: in subjects with advanced-stage NSCLC, melanoma, RCC, or ovarian cancer; host or cells: human trial subjects (endogenous PD-L1 on tumour and immune cells)
# [2] = molecular target: T2, PD-1 (Homo sapiens, UniProt Q15116)
# T2 construct: A phase II clinical trial in subjects with diffuse large B-cell lymphoma (DLBCL); host or cells: human trial subjects (endogenous PD-1 on their immune cells)
# T2 sequence (Q15116 25-288): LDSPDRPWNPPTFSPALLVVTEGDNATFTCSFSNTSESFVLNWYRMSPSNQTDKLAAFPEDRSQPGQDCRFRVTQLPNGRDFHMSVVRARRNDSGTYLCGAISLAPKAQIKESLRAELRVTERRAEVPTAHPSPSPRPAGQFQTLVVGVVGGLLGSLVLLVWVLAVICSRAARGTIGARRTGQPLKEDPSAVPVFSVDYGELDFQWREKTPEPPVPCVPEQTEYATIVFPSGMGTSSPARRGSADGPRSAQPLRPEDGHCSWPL
# T1 sequence (Q9NZQ7 19-290): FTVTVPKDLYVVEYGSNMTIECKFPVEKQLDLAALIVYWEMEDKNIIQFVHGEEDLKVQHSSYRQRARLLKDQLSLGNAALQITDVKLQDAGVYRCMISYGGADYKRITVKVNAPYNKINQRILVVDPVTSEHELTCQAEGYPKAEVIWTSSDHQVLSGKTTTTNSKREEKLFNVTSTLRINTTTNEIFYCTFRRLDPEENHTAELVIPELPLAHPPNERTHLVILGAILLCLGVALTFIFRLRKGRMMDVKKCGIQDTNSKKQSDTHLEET
substance,measurement,setting,value
Medi 4736: anti-PD-LI antibody,clinical activity,[1],durable clinical activity
CT-011: humanized IgGl monoclonal antibody against PD-I,subjects alive,"[2]; DLBCL, preliminary results",82%
same,subjects progression-free at the end of the follow-up period,"[2]; DLBCL, preliminary results",70%
same,activity of natural killer cells,[2]; in vivo,augments
